Experimental data as given in patent US20250145673A1.
Positions count from the first letter of the chain named.

B1: polypeptide comprising the amino acid sequence of SEQ ID NO: 33 (designed binder)
chain: MVKVKFAATGEEKEVETSKIANVYRVGKDVLFSYDDQGKIGWGYVSEKDAPKELLDLLARAEREK
B2: polypeptide comprising the amino acid sequence of SEQ ID NO: 34 (designed binder)
chain: B1 chain with A7D, A21S, N22A, V26T
B3: polypeptide having the amino acid sequence of SEQ ID NO: 27 (designed binder)
chain: MVKVKFEATGEEKEVDTSKIYQVYRSGKEVLFTYDDNGKTGWGYVSEKDAPKELLDMLARAEREK

What was measured:
C3b [1] = target: C3b (UniProt P01024); assay: ITC, polypeptide titrated into C3b; fit box in the lower panel
C3b [2] = target: C3b (UniProt P01024); assay: SPR, target amine-coupled to chip, single cycle kinetics, 1:1 Langmuir fit
C3b [3] = target: C3b (UniProt P01024); assay: ITC, binder titrated into target
C3b [4] = target: C3b (UniProt P01024); assay: ITC

Binder | Ka (C3b [1]) | Kd (C3b [2]) | -TΔS (C3b [3]) | Kd (C3b [3]) | N (C3b [3]) | ΔG (C3b [3]) | ΔH (C3b [3]) | Kd (C3b [4])
B1 | 7.95e+08 M⁻¹ | 0.16 nM | 6.5 kcal/mol | 1.3 nM | 0.9 | -12.1 kcal/mol | -18.6 kcal/mol | 1.3 nM
B2 | 1.4e+09 M⁻¹ | 0.42 nM | 14.7 kcal/mol | 0.7 nM | 0.89 | -12.5 kcal/mol | -27.2 kcal/mol | 0.7 nM
B3 | 3.88e+08 M⁻¹ | 1.92 nM | 23.9 kcal/mol | 2.6 nM | 0.95 | -11.7 kcal/mol | -35.6 kcal/mol | 2.6 nM
